This is an account of results in US20210238298A1 (ALLIGATOR BIOSCIENCE, published 2021).

The target in the assay is T1, Human OX40 (R&D systems, #3358_OX) (human, UniProt P43489 29-216).
T1 construct: Bought; Several catalogue numbers are given for it; also called human OX40 (R&D Systems, 3388-OX); OX40-Fc (R&D systems, #3358_OX); not shown: Fc part
T1 sequence: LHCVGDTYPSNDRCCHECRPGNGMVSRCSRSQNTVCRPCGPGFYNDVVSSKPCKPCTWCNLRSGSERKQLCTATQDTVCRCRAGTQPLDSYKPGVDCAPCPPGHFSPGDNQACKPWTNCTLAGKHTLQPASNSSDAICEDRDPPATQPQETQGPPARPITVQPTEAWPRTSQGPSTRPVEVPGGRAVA
Nature of the assay: ELISA: human OX40 coated, goat anti-human kappa light chain HRP, luminescence. The protocol:
ELISA plates were coated with human with CTLA-4 (BMS, Orencia) or human OX40 (R&D Systems, 3388-OX) at 0.4 or 0.5 μg/ml, respectively. The ELISA plates were washed with PBST and then blocked with PBST+2% BSA for 1h at room temperature and then washed again with PBST. The bispecific molecules were added in dilution series to the plates and incubated for 1h at room temperature. The ELISA plates were washed, and binding was detected using goat anti human kappa light chain HRP for 1 h at room temperature. SuperSignal Pico Luminescent was used as substrate and luminescence was measured using Fluostar Optima.
Background: ELISA stands for enzyme-linked immunosorbent assay.

B1: anti-OX40 antibody 1168/1135 (antibody, V domains shown)
VH: EVQLLESGGGLVQPGGSLRLSCAASGFTFSGSSMSWVRQAPGKGLEWVSSISYYGGYTYYADSVKGRFTISRDNSKNTLYLQMNSLRAEDTAVYYCARYFPHYYFDYWGQGTLVTVSS
VL: not shown
notes: Tested as IgG
On to B1, for which the concentration giving a half-maximal response (EC50 (read off the curve)) (usually the midpoint of the concentration-response curve) was around 0.2 nM.
